The test system of data set [1] is HeLa Kyoto. The experiment in a line: solubility in G1/S (NP-40 vs SDS abundance) (log2 ratio); higher = more soluble. To be noted: cell cycle stage: G1/S.
The subject of data set [2] is HeLa Kyoto. The experiment in a line: melting temperature (median over replicates), in situ; higher = more thermally stable.
Data set [3] relates to HeLa Kyoto. The data set can be described thus: solubility change mitosis vs G1/S (difference of NP-40 vs SDS log2 ratios) (log2 ratio difference); higher = more soluble in mitosis.
In data set [4] the test system is HeLa Kyoto. The data set can be described thus: thermal stability score vs G1/S (z-score of summed log2 fold changes over temperatures); higher = more thermally stable than in G1/S.
Setting [5] is: cell cycle stage: early G1 (4.5 h after nocodazole release).
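Throughout, for melting temperature (median over replicates), in situ: HeLa Kyoto cells synchronized by double thymidine or nocodazole block, proteins quantified by TMT10plex mass spectrometry, three independent biological replicates.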
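Throughout, for solubility change mitosis vs G1/S (difference of NP-40 vs SDS log2 ratios): synchronized HeLa Kyoto cells (double thymidine block for G1/S, nocodazole release for mitosis), protein amounts in NP-40 versus SDS lysates quantified by mass spectrometry, three biological replicates.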
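Throughout, for solubility in G1/S (NP-40 vs SDS abundance): HeLa Kyoto cells arrested at G1/S by double thymidine block, proteins quantified by TMT10plex mass spectrometry in mild NP-40 versus SDS extracts, three biological replicates.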
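Throughout, for thermal stability score vs G1/S (z-score of summed log2 fold changes over temperatures): synchronized HeLa Kyoto cells, proteins quantified by TMT10plex mass spectrometry, three biological replicates, mitosis taken 0.5 h after nocodazole release, G1/S directly after double thymidine block.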

Turning to “MKLPARVFFTLGSRLPCGLAPRRFFSYGTKILYQNTEALQSKFFSPLQKAMLPPNSFQGKVAFITGGGTGLGKGMTTLLSSLGAQCVIASRKMDVLKATAEQISSQTGNKVHAIQCDVRDPDMVQNTVSELIKVAGHPNIVINNAAGNFISPTERLSPNAWKTITDIVLNGTAFVTLEIGKQLIKAQKGAAFLSITTIYAETGSGFVVPSASAKAGVEAMSKSLAAEWGKYGMRFNVIQPGPIKTKGAFSRLDPTGTFEKEMIGRIPCGRLGTVEELANLAAFLCSDYASWINGAVIKFDGGEEVLISGEFNDLRKVTKEQWDTIEELIRKTKGS [DECR1]”, the “solubility in G1/S (log2)” value with HeLa Kyoto [1] was 0.0868. For the same sequence, the melting temperature with HeLa Kyoto [2] (cell cycle stage: G1/S) came to 55.7 °C; with HeLa Kyoto [2] (cell cycle stage: mitosis), 55.5 °C. The “solubility change mitosis (log2)” value in the data set with HeLa Kyoto [3] stood at 0.263. Further, the thermal stability score with HeLa Kyoto [4] (setting [5]) was 0.81; in the data set on HeLa Kyoto [4] (cell cycle stage: mitosis), -1.85.
Take “MKPKLMYQELKVPAEEPANELPMNEIEAWKAAEKKARWVLLVLILAVVGFGALMTQLFLWEYGDLHLFGPNQRPAPCYDPCEAVLVESIPEGLDFPNASTGNPSTSQAWLGLLAGAHSSLDIASFYWTLTNNDTHTQEPSAQQGEEVLRQLQTLAPKGVNVRIAVSKPSGPQPQADLQALLQSGAQVRMVDMQKLTHGVLHTKFWVVDQTHFYLGSANMDWRSLTQVKELGVVMYNCSCLARDLTKIFEAYWFLGQAGSSIPSTWPRFYDTRYNQETPMEICLNGTPALAYLASAPPPLCPSGRTPDLKALLNVVDNARSFIYVAVMNYLPTLEFSHPHRFWPAIDDGLRRATYERGVKVRLLISCWGHSEPSMRAFLLSLAALRDNHTHSDIQVKLFVVPADEAQARIPYARVNHNKYMVTERATYIGTSNWSGNYFTETAGTSLLVTQNGRGGLRSQLEAIFLRDWDSPYSHDLDTSADSVGNACRLL [PLD3]”: the “solubility in G1/S (log2)” value in the data set on HeLa Kyoto [1] was found to be 0.309. For the same sequence, the melting temperature with HeLa Kyoto [2] (cell cycle stage: G1/S) came out at 55.7 °C; in the data set with HeLa Kyoto [2] (cell cycle stage: mitosis) it was 55.3 °C. Moreover, in the data set with HeLa Kyoto [3], the “solubility change mitosis (log2)” value was -0.0637. In addition, the thermal stability score was -2.87 in the data set on HeLa Kyoto [4] (setting [5]) and -4.26 in the data set on HeLa Kyoto [4] (cell cycle stage: mitosis).
As for “MKPLVVFVLGGPGAGKGTQCARIVEKYGYTHLSAGELLRDERKNPDSQYGELIEKYIKEGKIVPVEITISLLKREMDQTMAANAQKNKFLIDGFPRNQDNLQGWNKTMDGKADVSFVLFFDCNNEICIERCLERGKSSGRSDDNRESLEKRIQTYLQSTKPIIDLYEEMGKVKKIDASKSVDEVFDEVVQIFDKEG [CMPK1]”, in the data set with HeLa Kyoto [1], the “solubility in G1/S (log2)” value stood at 0.272. The melting temperature stood at 51.1 °C in the data set with HeLa Kyoto [2] (cell cycle stage: G1/S) and 52.2 °C in the data set on HeLa Kyoto [2] (cell cycle stage: mitosis). For the same sequence, the “solubility change mitosis (log2)” value with HeLa Kyoto [3] came out at 0.065. The values for the thermal stability score in the data set on HeLa Kyoto [4] (setting [5]) and in the data set with HeLa Kyoto [4] (cell cycle stage: mitosis) were 1.52 and 0.905, respectively.
“MKRPKLKKASKRMTCHKRYKIQKKVREHHRKLRKEAKKRGHKKPRKDPGVPNSAPFKEALLREAELRKQRLEELKQQQKLDRQKELEKKRKLETNPDIKPSNVEPMEKEFGLCKTENKAKSGKQNSKKLYCQELKKVIEASDVVLEVLDARDPLGCRCPQVEEAIVQSGQKKLVLILNKSDLVPKENLESWLNYLKKELPTVVFRASTKPKDKGKITKRVKAKKNAAPFRSEVCFGKEGLWKLLGGFQETCSKAIRVGVIGFPNVGKSSIINSLKQEQMCNVGVSMGLTRSMQVVPLDKQITIIDSPSFIVSPLNSSSALALRSPASIEVVKPMEAASAILSQADARQVVLKYTVPGYRNSLEFFTVLAQRRGMHQKGGIPNVEGAAKLLWSEWTGASLAYYCHPPTSWTPPPYFNESIVVDMKSGFNLEELEKNNAQSIRAIKGPHLANSILFQSSGLTNGIIEEKDIHEELPKRKERKQEEREDDKDSDQETVDEEVDENSSGMFAAEETGEALSEETTAGEQSTRSFILDKIIEEDDAYDFSTDYV [GNL3]”: the “solubility in G1/S (log2)” value in the data set on HeLa Kyoto [1] is -1.72. In addition, the melting temperature with HeLa Kyoto [2] (cell cycle stage: G1/S) is 45.3 °C; in the data set on HeLa Kyoto [2] (cell cycle stage: mitosis), 50.2 °C. Moreover, the “solubility change mitosis (log2)” value in the data set with HeLa Kyoto [3] stood at 0.867. Moreover, the results for the thermal stability score with HeLa Kyoto [4] (setting [5]) and with HeLa Kyoto [4] (cell cycle stage: mitosis) were 5.07 and 8.85, respectively.
Take “MKSLKAKFRKSDTNEWNKNDDRLLQAVENGDAEKVASLLGKKGASATKHDSEGKTAFHLAAAKGHVECLRVMITHGVDVTAQDTTGHSALHLAAKNSHHECIRKLLQSKCPAESVDSSGKTALHYAAAQGCLQAVQILCEHKSPINLKDLDGNIPLLLAVQNGHSEICHFLLDHGADVNSRNKSGRTALMLACEIGSSNAVEALIKKGADLNLVDSLGYNALHYSKLSENAGIQSLLLSKISQDADLKTPTKPKQHDQVSKISSERSGTPKKRKAPPPPISPTQLSDVSSPRSITSTPLSGKESVFFAEPPFKAEISSIRENKDRLSDSTTGADSLLDISSEADQQDLLSLLQAKVASLTLHNKELQDKLQAKSPKEAEADLSFDSYHSTQTDLGPSLGKPGETSPPDSKSSPSVLIHSLGKSTTDNDVRIQQLQEILQDLQKRLESSEAERKQLQVELQSRRAELVCLNNTEISENSSDLSQKLKETQSKYEEAMKEVLSVQKQMKLGLVSPESMDNYSHFHELRVTEEEINVLKQDLQNALEESERNKEKVRELEEKLVEREKGTVIKPPVEEYEEMKSSYCSVIENMNKEKAFLFEKYQEAQEEIMKLKDTLKSQMTQEASDEAEDMKEAMNRMIDELNKQVSELSQLYKEAQAELEDYRKRKSLEDVTAEYIHKAEHEKLMQLTNVSRAKAEDALSEMKSQYSKVLNELTQLKQLVDAQKENSVSITEHLQVITTLRTAAKEMEEKISNLKEHLASKEVEVAKLEKQLLEEKAAMTDAMVPRSSYEKLQSSLESEVSVLASKLKESVKEKEKVHSEVVQIRSEVSQVKREKENIQTLLKSKEQEVNELLQKFQQAQEELAEMKRYAESSSKLEEDKDKKINEMSKEVTKLKEALNSLSQLSYSTSSSKRQSQQLEALQQQVKQLQNQLAECKKQHQEVISVYRMHLLYAVQGQMDEDVQKVLKQILTMCKNQSQKK [RAI14]”: the “solubility in G1/S (log2)” value in the data set with HeLa Kyoto [1] is -0.263. Also, the melting temperature in the data set with HeLa Kyoto [2] (cell cycle stage: G1/S) was found to be 49.7 °C; with HeLa Kyoto [2] (cell cycle stage: mitosis), 50 °C. Besides, in the data set with HeLa Kyoto [3], the “solubility change mitosis (log2)” value amounted to 0.267. The thermal stability score in the data set on HeLa Kyoto [4] (setting [5]) amounted to 0.622; with HeLa Kyoto [4] (cell cycle stage: mitosis) it was 0.688.

Source of the values: the supplement of paper PMC5998384.
